Experimental data as given in publication PMC3246890 (The Journal of Cell Biology, 2011).

Target: the molecule itself
Test: bead aggregation assay

B1: NcadEC-Fc (secreted ectodomain of zebrafish N-cadherin fused to the Fc region of human IgG) (Fc fusion, UniProt Q90275 147-711, looked up)
chain: DWVIPPVNVLENSRKQFPEELVKIQSDKDKSNTLRYSVTGPGADQNPTGLFIIDPISGLLSVTKPLDREHIPNFHLRAHAVDINGNQMENPIDIIINVIDMNDNRPEFTHQIWNGTVDEGAKPGTFVMTVTSQDKDDPNTANGMLRYKILSQTPESPSSNMFTINNKTGKIITVAAGLDREKVPQYTLIIQATDMEGNPTYGLSNTATAVIRLLDVNDNAPEFTRETFHGEVPENRVNVIVTNLTVTDKDEPGTPAWNAVYRIISGDPTGRFSIPTDPVTNEGLVTVVKPVDFEMNRSFMLTVVADNEVPLASGIHRTRQSTATVSIRVIDVNESPNFDPNPKQIKLEEGLPQWSMLTTFTAHDPDRYMQQTISYSKLYDPANWLEIDPNNGRISTIAVLDRESPYVKNNLYNATFMASDNGVPRASGTGTLQIYLLDINDNAPRVFPQEAEVCERPEPNAINITAVDGDLNPNAGPYAFELPNRPSDIRRNWTLTRISGDHAQLSLKISYLESGIYELPISITDSGNLPMSNTTYLRIKVCQCDHHGDCVDMERIMAAGLGTGA
- binding result: binds
